Reference: publication PMC3199381 (The EMBO Journal, 2011)
pKd: −log10 of the molar value. Read-outs that look alike come from different tables or passages of the source. Values belong to the molecule of their own block, whether it stands above or below them.

Experiments:
MglA·MglB^A5 complex = biological target: T1, MglA·MglB^A5 complex (Thermus thermophilus, UniProt Q5SJ82); assay: X-ray crystal structure, […] Å; format: binding; conditions: with AlF4- as transition state mimic
T1 sequence (Q5SJ82 1-196): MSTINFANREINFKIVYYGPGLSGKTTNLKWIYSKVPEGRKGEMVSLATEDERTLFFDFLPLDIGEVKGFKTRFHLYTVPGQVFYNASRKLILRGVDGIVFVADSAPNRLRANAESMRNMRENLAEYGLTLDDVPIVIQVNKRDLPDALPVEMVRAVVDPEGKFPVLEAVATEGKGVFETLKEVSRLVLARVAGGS
T1 sequence (Q5SJ83 6-139 E14A/R15A/G65S/R124A/E127A/R131A partner): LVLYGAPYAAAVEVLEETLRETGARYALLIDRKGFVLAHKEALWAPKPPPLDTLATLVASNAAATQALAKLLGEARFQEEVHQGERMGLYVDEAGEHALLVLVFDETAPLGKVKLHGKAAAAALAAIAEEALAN

T.t.MglA = biological target: T2, T.t.MglA (Thermus thermophilus, UniProt Q5SJ82); assay: X-ray crystal structure, […] Å; format: binding; conditions: no Mg2+ detected at the nucleotide
T2 sequence (Q5SJ82 1-196): T1 sequence (Q5SJ82 1-196)

[1] = biological target: MglA from Thermus thermophilus HB8, wild type (Thermus thermophilus HB8); assay: fluorescence polarisation
[2] = biological target: MglB from Thermus thermophilus HB8, residues 6-139 (Thermus thermophilus HB8); assay: SEC
[3] = biological target: MglA from Thermus thermophilus HB8, wild type (Thermus thermophilus HB8); assay: SEC
[4] = biological target: MglB from Thermus thermophilus HB8, residues 6-139 (Thermus thermophilus HB8); assay: crystal structure
[5] = biological target: MglA from Thermus thermophilus HB8, wild type (Thermus thermophilus HB8); assay: fluorescence polarisation; remark: listed apart in the source
[6] = biological target: MglB from Thermus thermophilus HB8, residues 6-139 (Thermus thermophilus HB8); assay: crystal structure; remark: listed apart in the source
[7] = biological target: MglA from Thermus thermophilus HB8, wild type (Thermus thermophilus HB8); assay: crystal structure

X-ray crystal structure, 2.2 Å (MglA·MglB^A5 complex): 3T12 (MglA·GDP·AlF4-·MglB^A5)
X-ray crystal structure, 1.9 Å (T.t.MglA): 3T1O (MglA·GDP)
Molecule: Nc1nc2c(ncn2[C@@H]2O[C@H](COP(=O)(O)OP(=O)(O)O)[C@@H](O)[C@H]2O)c(=O)[nH]1 [GDP]

pKd [1]: 5.70
stoichiometry N [2]: 2
stoichiometry N (MglB per MglA) [3]: 2
stoichiometry N [4]: 2
pKd [5]: 5.49
stoichiometry N (MglB monomers per MglA) [5]: 2
stoichiometry N [6]: 4
Molecule: MglB from Thermus thermophilus HB8, residues 6-139 (domain or fragment)

stoichiometry N (MglB per MglA) [7]: 2
Molecule: MglB^A5 (E14/R15/R124/E127/R131A), residues 6-139 (domain or fragment)

pKd [5]: 4.46
Molecule: MglB^A68/72R, residues 6-139 (domain or fragment)
